Drawing on patent publication US20130096058A1, this text covers IC50 of inhibition of MuCD40L-induced CD86 expression on B cells for one substance.

In the experiment the target is Murine CD40L on the Th2 cell line D10.G4.1 (mouse) (UniProt P27548). Description: cell-based or functional assay.
Murine CD40L on the Th2 cell line D10.G4.1 (mouse), sequence (P27548 whole entry): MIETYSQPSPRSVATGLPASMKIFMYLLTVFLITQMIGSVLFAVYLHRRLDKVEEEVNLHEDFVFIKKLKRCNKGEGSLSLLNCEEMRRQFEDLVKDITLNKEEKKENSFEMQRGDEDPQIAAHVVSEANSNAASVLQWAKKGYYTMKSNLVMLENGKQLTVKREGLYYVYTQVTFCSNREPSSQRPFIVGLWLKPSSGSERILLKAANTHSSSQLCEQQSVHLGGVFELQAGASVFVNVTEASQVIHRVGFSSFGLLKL

MR1 antibody registered an IC50 of inhibition of MuCD40L-induced CD86 expression on B cells of 100 µM.
